From patent US20180264110A1

Legend:
[1] = biological target: BTLA overexpressed on 293T cells (human) (UniProt Q7Z6A9); assay: FACS, 293T cells overexpressing BTLA; secondary antibody alone (background control)
[2] = biological target: BTLA overexpressed on 293T cells (human) (UniProt Q7Z6A9); assay: FACS, 293T cells overexpressing BTLA

BTLA overexpressed on 293T cells (human), sequence (Q7Z6A9 31-289 limits assumed): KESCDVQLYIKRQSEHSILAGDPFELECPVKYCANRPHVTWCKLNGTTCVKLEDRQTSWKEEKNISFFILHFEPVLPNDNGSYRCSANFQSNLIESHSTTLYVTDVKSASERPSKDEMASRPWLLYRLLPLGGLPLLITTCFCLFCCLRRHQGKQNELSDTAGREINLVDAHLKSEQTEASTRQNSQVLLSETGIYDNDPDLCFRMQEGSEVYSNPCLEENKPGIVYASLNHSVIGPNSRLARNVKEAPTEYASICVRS

% Gate [1] [%]	MR [1]	% Gate [2] [%]	MR [2]	Substance
10.1	16.6	–	–	2′Ab only (antibody)
–	–	91.3	2850	BTLA (MIH26) (antibody)
–	–	5.08	11.7	Isotype (antibody)
